Source: paper PMC5490264 (Nature Communications, 2017)

B1: Halo-YscQ (natural protein)
chain: MSLLTLPQAKLSELSLRQRLSHYRQNYLWEEGKLELTVSEPPSSLNCILQLQWKGTHFTLYCFGDDLANWLTPDLLGAPFSTLPKELQLALLERQTVFLPKLVCNDIATASLSVTQPLLSLRLSRDNAHISFWLTSAEALFALLPARPNSERIPLPILLSLRWHKVYLTLDEVDSLRLGDVLLAPEGSGPNSPVLAYVGENPWGYFQLQSNKLEFIGMSHESDELNPKPLTDLNQLPVQVSFEVGRQILDWHTLTSLEPGSLIDLTTPVDGEVRLLANGRLLGHGRLVEIQGRLGVRIERLTEVTIS
notes: also called Halo-tagged YscQ; SctQ/YscQ
B2: YscL (natural protein)
chain: MSQTCQTGYAYMQPFVQIIPSNLSLACGLRILRAEDYQSSLTTEELISAAKQDAEKILADAQEVYEQQKQLGWQAGMDEARTLQATLIHETQLQCQQFYRHVEQQMSEVVLLAVRKILNDYDQVDMTLQVVREALALVSNQKQVVVRVNPDQAGTIREQIAKVHKDFPEISYLEVTADARLDQGGCILETEVGIIDASIDGQIEALSRAISTTLGQMKVTEEE
notes: YscL (SctL), negative regulator of the T3SS ATPase, Yersinia enterocolitica; untagged; also called SctL/YscL; negative regulator of the ATPase; source: endogenous, Y. enterocolitica lysate (strain expressing Halo-YscQ)
B3: YscN (enzyme)
chain: MLSLDQIPHHIRHGIVGSRLIQIRGRVTQVTGTLLKAVVPGVRIGELCYLRNPDNSLSLQAEVIGFAQHQALLIPLGEMYGISSNTEVSPTGTMHQVGVGEHLLGQVLDGLGQPFDGGHLPEPAAWYPVYQDAPAPMSRKLITTPLSLGIRVIDGLLTCGEGQRMGIFAAAGGGKSTLLASLIRSAEVDVTVLALIGERGREVREFIESDLGEEGLRKAVLVVATSDRPSMERAKAGFVATSIAEYFRDQGKRVLLLMDSVTRFARAQREIGLAAGEPPTRRGYPPSVFAALPRLMERAGQSSKGSITALYTVLVEGDDMTEPVADETRSILDGHIILSRKLAAANHYPAIDVLRSASRVMNQIVSKEHKTWAGDLRRLLAKYEEVELLLQIGEYQKGQDKEADQAIERIGAIRGWLCQGTHELSHFNETLNLLETLTQ
notes: YscN (SctN), type III secretion ATPase, Yersinia enterocolitica; also called SctN/YscN; T3SS ATPase; source: endogenous, Y. enterocolitica lysate (pYV virulence plasmid)

Tests used:
[1] = target: the molecule itself; experiment: affinity purification with mass spectrometry; as a1, but strains lacking YscD (ΔyscD; all soluble components diffuse in the cytosol); amounts normalized to the WT strain; one representative quantitative mass spectrometry experiment
Halo-YscQ = target: B1; experiment: as above; conditions: partners not purified

Binder | degree of interaction in the ΔyscD strain relative to the WT strain [1] [%] | degree of interaction in the ΔyscD strain relative to the WT strain (Halo-YscQ) [%]
B1 | ~50 | 
B2 |  | ~50
B3 |  | ~20
